Data set [1] can be described thus: CD temperature-dependent denaturation of triple helix. The class given is physicochemical. Particulars: CD ellipticity at 225 nm, 20° C./hr, Boltzmann sigmoidal fit. On the procedure: Circular Dichroism (CD) Spectroscopy. Synthetic collagen peptides were analyzed by CD spectroscopy, as described previously (18) with the following modifications. Briefly, peptides were dissolved in HBS to a concentration of 50 μM. CD spectra were collected on a Jasco J720 spectropolarimeter (Tokyo, Japan) from 190 to 240 nm, with bandwidth of 1 nm and integrated for 1 s at 0.2 nm intervals. Samples were measured at room temperature using cuvettes with 0.02 cm path length. For temperature-dependent denaturation analysis, […] of peptides were added to a thermostatically controlled cuvette with a 0.5 cm path length. Thermal transition profiles were recorded at 225 nm as described above with a temperature slope of 20° C./hr. To calculate the temperature melting points, the thermal transition profiles were fitted with Boltzmann sigmoidal model using the GraphPad Prism™ software (GraphPad Software Inc., San Diego, Calif.).

The target of data set [2] is T1, α1I binding to type III collagen (Homo sapiens, UniProt P56199).
T1 construct: recombinant I domains from integrins α1 and α2 (α1I and α2I); made in house
T1 sequence (P56199 161-360 limits assumed): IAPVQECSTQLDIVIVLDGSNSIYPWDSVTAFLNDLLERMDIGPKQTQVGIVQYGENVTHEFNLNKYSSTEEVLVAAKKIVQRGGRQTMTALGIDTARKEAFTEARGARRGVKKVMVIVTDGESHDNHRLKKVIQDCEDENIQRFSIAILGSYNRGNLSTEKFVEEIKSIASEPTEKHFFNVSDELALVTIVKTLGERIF
Kind of data set: Competition ELISA, inhibition of I domain binding to type III collagen. The settings on record: 100 μM peptide, 0.5 μM α1I, type III procollagen-coated wells.

Data set [3] has as its target T2, α2I binding to type III collagen (Homo sapiens, UniProt P17301).
T2 construct: recombinant I domains from integrins α1 and α2 (α1I and α2I); made in house
Described as above. Particulars: 100 μM peptide, 5 μM α2I, type III procollagen-coated wells.

The next data set has as its system MRC-5 cells. Nature of the data set: Cell attachment assay on coated substrates. The class given is cell-based, human. The settings on record: increasing coating concentrations, 1.5×10^4 cells per well, 45 min, room temperature. As to the method: Reagents and Cell Culture. The human recombinant mature type III collagen used for cell attachment assays was purchased from FibroGen. All cell culture media components were purchased from Invitrogen. The human lung fibroblast cell line MRC-5 was purchased from American Type Culture Collection (ATCC) (Manassas, Va.). The cells were cultured and passaged in Dulbecco's modified Eagle's medium (DMEM) supplemented with 10% fetal bovine serum, 100 unit/ml penicillin and 100 μg/ml streptomycin. The cells were grown to subconfluence and passaged every 2-3 days.
Cell attachment assay. MRC-5 cells were starved overnight in serum deficient DMEM containing penicillin and streptomycin, then detached using 1 mM EDTA and 0.025% trypsin at 37° C. for 2 minutes. The cells were washed with PBS and resuspended in DMEM containing 0.2% BSA supplemented with 2 mM MgCl2. 100 μl of the cell suspension (˜1.5×10^5 cells/ml) were added to the microtiter wells coated with different concentrations of collagen or collagen peptides and blocked with PBS containing 0.5% (w/v) BSA. After incubation at room temperature for 45 min, the wells were washed with PBS. Attached cells were fixed with 3% p-formaldehyde for 10 min at room temperature. Following washing with cold Tris-buffered saline (TBS), pH 7.4, cells were fixed again in 20% methanol for 10 min and stained with 0.5% crystal violet for 5 min. The wells were thoroughly washed with distilled water and air-dried. Sodium citrate (0.1 M) was then added to the wells to dissolve the dye and the absorbance at 590 nm was measured. The maximum cell attachment on type III collagen was set to 100% and, residual attachment on BSA was set to 0%.
Adhesion of MRC-5 cells to peptide#1 (SEQ ID NO: 15) substrates. […] Wells in 96-well plates were coated with increasing concentrations of type III collagen, peptide #1 (SEQ ID NO: 15) or #2 (SEQ ID NO: 16) and 1.5×10^4 MRC-5 cells were added to each well. The plate was incubated for 45 min at room temperature and adhering cells were quantified as described herein.

Data set [4] concerns the target T3, α2I (recombinant I domain of integrin α2) (Homo sapiens, UniProt P17301).
T3 construct: recombinant I domains from integrins α1 and α2 (α1I and α2I); made in house
Nature of the data set: SPR (BIAcore 3000), I domain binding to immobilized fibrillar collagens. The settings on record: equilibrium analysis, 1 mM MgCl2. As to the method:
Surface Plasmon Resonance (SPR) measurements. For the analyses of interactions between recombinant I domains and fibrillar collagens, SPR measurements were carried out at ambient temperature using the BIAcore 3000 system (BIAcore, Uppsala, Sweden) as described previously (21) with following modifications. First, purified recombinant human procollagens I and III (described above), or bovine mature type II collagen (Sigma) were immobilized on the flow cells of a CM5 chip resulting in 200-700 response units of immobilized protein.
SPR sensorgrams from different injections were overlaid using the BIAevaluation software (BIAcore AB). Data from the steady state portion of the sensorgrams were used to determine the binding affinities. Based on the correlation between the SPR response and change in protein mass on the surfaces of flow cells, values for the binding ratio, νbound, and the concentration of free protein, [P]free, were calculated using the equations described previously (21). Scatchard analysis was performed by plotting νbound/[P]free against νbound in which the negative reciprocal of the slope is the dissociation constant, KD. Nonlinear regression was also performed by plotting νbound against [P]free and fitted with the one-binding class or the two-binding class models using the GraphPad Prism™ software (GraphPad Software Inc., San Diego, Calif.). Results from the two models were compared with respect to the value of R^2 and the degree of freedom of the curve fit. The model that gave KD values outside the experimental data range was excluded. Experimental results were reproducible with at least three independent protein preparations.
The interactions between the two I domains and fibrillar collagens (types I, II and III) were examined by SPR. Solutions of 1 μM α1I or α2I were passed over chips containing immobilized collagen I, II, or III in the presence of 1 mM MgCl2.
The BIAcore 3000 system used in the present invention had higher sensitivity of detection which enabled examination of the interactions between α2I and collagens at a sub-micromolar concentration range. […] The binding affinities of α2I to the three types of collagen appeared to be slightly more variable.
A general note: Surface plasmon resonance follows binding to a sensor surface in real time, without labels.

[5] abbreviates: first line per collagen in Table 2 (unit from b77), read-out: KD, high affinity binding class.
[6] abbreviates: second line per collagen in Table 2 (unit from b77), read-out: KD, low affinity binding class.

Read-outs that look alike come from different tables or passages of the source. Non-standard residues stand in square brackets, D forms with d. Residues, ends and D or L forms follow the SMILES beside them. No end group written: not given here. Hyp = O=C(O)[C@@H]1C[C@@H](O)CN1

T3 sequence (P17301 188-365 limits assumed): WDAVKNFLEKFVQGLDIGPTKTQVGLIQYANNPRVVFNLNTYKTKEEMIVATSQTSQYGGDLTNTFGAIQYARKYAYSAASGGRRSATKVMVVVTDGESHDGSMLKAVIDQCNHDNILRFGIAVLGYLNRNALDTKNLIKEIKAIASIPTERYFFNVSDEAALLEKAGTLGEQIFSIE
T2 sequence (P17301 188-365 limits assumed): as above

Consider `N=C(N)NCCC[C@H](NC(=O)[C@H](CCC(=O)O)NC(=O)CNC(=O)[C@@H]1C[C@@H](O)CN1C(=O)[C@H](CCCNC(=N)N)NC(=O)CNC(=O)[C@@H]1C[C@@H](O)CN1C(=O)[C@@H]1CCCN1C(=O)CNC(=O)[C@@H]1C[C@@H](O)CN1C(=O)[C@@H]1CCCN1C(=O)CNC(=O)[C@@H]1C[C@@H](O)CN1C(=O)[C@@H]1CCCN1C(=O)CN)C(=O)NCC(=O)N1CCC[C@H]1C(=O)N1C[C@H](O)C[C@H]1C(=O)NCC(=O)N1CCC[C@H]1C(=O)N1C[C@H](O)C[C@H]1C(=O)NCC(=O)N1CCC[C@H]1C(=O)N1C[C@H](O)C[C@H]1C(N)=O` [GROGER] (H-GP[Hyp]GP[Hyp]GP[Hyp]GR[Hyp]GERGP[Hyp]GP[Hyp]GP[Hyp]-NH2; N-terminus and C-terminus assumed), for which the “melting temperature (Tm) of triple helix” value in data set [1] was determined as 41 °C.

As for “(GPO)3GAOGERGROGLO(GPO)3 (GP[Hyp]GP[Hyp]GP[Hyp]GA[Hyp]GERGR[Hyp]GL[Hyp]GP[Hyp]GP[Hyp]GP[Hyp]) [peptide #2]”, the “inhibition of binding of α1I to type III collagen” value in data set [2] was found to be 40%. The “inhibition of binding of α2I to type III collagen” value in data set [3] was found to be 60%. Moreover, in the data set with MRC-5 cells, the “adhesion of MRC-5 cells to coated substrate” value is listed as “could not”.

With “(GPO)11 (GPRGRT) [peptide #3, control peptide, reference compound]”, in data set [2], the “inhibition of binding of α1I to type III collagen” value is recorded as “did not show any inhibitory activity”. The “inhibition of binding of α2I to type III collagen” value in data set [3] is “did not show any inhibitory activity”.

In the case of “Collagen I: purified recombinant human procollagen I immobilized for SPR; type I collagen of the cited earlier study”, the Kd in data set [4] (first line per collagen in Table 2 (unit from b77), listed as type I collagen, read-out: KD, high affinity binding class) is ~0.3 µM; in data set [4] (setting [5]), 0.26 ± 0.08 µM; in data set [4] (second line per collagen in Table 2 (unit from b77), listed as type I collagen, read-out: KD, low affinity binding class), ~4 µM; in data set [4] (setting [6]), 3.99 ± 0.82 µM.

For the molecule “Collagen II: bovine mature type II collagen (Sigma)”, the Kd in data set [4] (setting [5]) was 1.75 µM; in data set [4] (second line per collagen in Table 2 (unit from b77), listed as type II collagen, read-out: KD, low affinity binding class) it was ~16.5 µM; in data set [4] (setting [6]), 16.5 ± 3.89 µM.

B1: Collagen III: recombinant human procollagen III in SPR; human recombinant mature type III collagen (FibroGen) in cell attachment assay (protein)
chain: QQEAVEGGCSHLGQSYADRDVWKPEPCQICVCDSGSVLCDDIICDDQELDCPNPEIPFGECCAVCPQPPTAPTRPPNGQGPQGPKGDPGPPGIPGRNGDPGIPGQPGSPGSPGPPGICESCPTGPQNYSPQYDSYDVKSGVAVGGLAGYPGPAGPPGPPGPPGTSGHPGSPGSPGYQGPPGEPGQAGPSGPPGPPGAIGPSGPAGKDGESGRPGRPGERGLPGPPGIKGPAGIPGFPGMKGHRGFDGRNGEKGETGAPGLKGENGLPGENGAPGPMGPRGAPGERGRPGLPGAAGARGNDGARGSDGQPGPPGPPGTAGFPGSPGAKGEVGPAGSPGSNGAPGQRGEPGPQGHAGAQGPPGPPGINGSPGGKGEMGPAGIPGAPGLMGARGPPGPAGANGAPGLRGGAGEPGKNGAKGEPGPRGERGEAGIPGVPGAKGEDGKDGSPGEPGANGLPGAAGERGAPGFRGPAGPNGIPGEKGPAGERGAPGPAGPRGAAGEPGRDGVPGGPGMRGMPGSPGGPGSDGKPGPPGSQGESGRPGPPGPSGPRGQPGVMGFPGPKGNDGAPGKNGERGGPGGPGPQGPPGKNGETGPQGPPGPTGPGGDKGDTGPPGPQGLQGLPGTGGPPGENGKPGEPGPKGDAGAPGAPGGKGDAGAPGERGPPGLAGAPGLRGGAGPPGPEGGKGAAGPPGPPGAAGTPGLQGMPGERGGLGSPGPKGDKGEPGGPGADGVPGKDGPRGPTGPIGPPGPAGQPGDKGEGGAPGLPGIAGPRGSPGERGETGPPGPAGFPGAPGQNGEPGGKGERGAPGEKGEGGPPGVAGPPGGSGPAGPPGPQGVKGERGSPGGPGAAGFPGARGLPGPPGSNGNPGPPGPSGSPGKDGPPGPAGNTGAPGSPGVSGPKGDAGQPGEKGSPGAQGPPGAPGPLGIAGITGARGLAGPPGMPGPRGSPGPQGVKGESGKPGANGLSGERGPPGPQGLPGLAGTAGEPGRDGNPGSDGLPGRDGSPGGKGDRGENGSPGAPGAPGHPGPPGPVGPAGKSGDRGESGPAGPAGAPGPAGSRGAPGPQGPRGDKGETGERGAAGIKGHRGFPGNPGAPGSPGPAGQQGAIGSPGPAGPRGPVGPSGPPGKDGTSGHPGPIGPPGPRGNRGERGSEGSPGHPGQPGPPGPPGAPGPCCGGVGAAAIAGIGGEKAGGFAPYYGDEPMDFKINTDEIMTSLKSVNGQIESLISPDGSRKNPARNCRDLKFCHPELKSGEYWVDPNQGCKLDAIKVFCNMETGETCISANPLNVPRKHWWTDSSAEKKHVWFGESMDGGFQFSYGNPELPEDVLDVHLAFLRLLSSRASQNITYHCKNSIAYMDQASGNVKKALKLMGSNEGEFKAEGNSKFTYTVLEDGCTKHTGEWSKTVFEYRTRKAVRLPIVDIAPYDIGGPDQEFGVDVGPVCFL
modifications: non-natural residues
notes: recombinant human procollagen III in SPR; human recombinant mature type III collagen (FibroGen) in cell attachment assay
For B1, the Kd in data set [4] (first line per collagen in Table 2 (unit from b77), listed as type III collagen, read-out: KD, high affinity binding class) is ~0.3 µM; in data set [4] (setting [5]), 0.33 ± 0.03 µM; in data set [4] (second line per collagen in Table 2 (unit from b77), listed as type III collagen, read-out: KD, low affinity binding class), ~14.5 µM; in data set [4] (setting [6]), 14.5 ± 3.41 µM. For the same molecule, the “adhesion of MRC-5 cells to coated substrate” value in the data set with MRC-5 cells is given as “could support adhesion of MRC-5 cells in a dose-dependent manner”.

As usually defined, the Kd is the constant that tells how readily two partners part at equilibrium.

The values above are taken from patent US10358464B2, “Specific binding sites in collagen for integrins and use thereof” (The Texas A&M University System, priority 2005, dated 2019).
